Drawing on patent US9725708B2, “Methods of modulating ubiquitin ligase activity” (Board of Supervisors of Louisiana State University and …, priority 2012, dated 2017), this text covers effect on rate and increase in rate for one molecule.

The target in one test is T1, E6APD543A (Homo sapiens, UniProt Q05086, D566A).
T1 construct: made in house; host or cells: E. coli
T1 sequence (Q05086 1-872 isoform Q05086-3 D563A): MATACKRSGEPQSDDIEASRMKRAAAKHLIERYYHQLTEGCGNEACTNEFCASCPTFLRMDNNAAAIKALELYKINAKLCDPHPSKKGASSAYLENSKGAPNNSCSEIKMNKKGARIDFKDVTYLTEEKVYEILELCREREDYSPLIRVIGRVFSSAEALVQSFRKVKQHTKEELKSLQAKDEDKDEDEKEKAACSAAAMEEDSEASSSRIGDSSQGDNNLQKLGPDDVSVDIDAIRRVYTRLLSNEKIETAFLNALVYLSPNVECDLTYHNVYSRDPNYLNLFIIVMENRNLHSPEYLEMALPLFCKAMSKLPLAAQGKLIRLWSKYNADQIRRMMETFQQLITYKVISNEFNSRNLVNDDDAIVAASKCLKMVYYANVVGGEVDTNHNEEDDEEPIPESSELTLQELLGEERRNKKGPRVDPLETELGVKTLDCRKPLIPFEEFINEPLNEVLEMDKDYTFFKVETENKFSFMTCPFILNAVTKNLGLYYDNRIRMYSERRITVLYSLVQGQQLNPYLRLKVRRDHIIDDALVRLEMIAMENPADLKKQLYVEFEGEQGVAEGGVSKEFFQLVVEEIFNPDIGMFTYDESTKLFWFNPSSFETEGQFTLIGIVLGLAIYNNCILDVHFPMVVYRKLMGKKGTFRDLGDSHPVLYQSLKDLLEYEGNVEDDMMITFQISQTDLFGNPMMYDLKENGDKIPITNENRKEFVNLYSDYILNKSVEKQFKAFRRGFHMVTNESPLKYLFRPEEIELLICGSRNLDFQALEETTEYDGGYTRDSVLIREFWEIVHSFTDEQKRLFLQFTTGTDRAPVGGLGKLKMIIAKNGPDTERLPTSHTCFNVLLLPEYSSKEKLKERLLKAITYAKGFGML
The experiment in a line: E6 rescue of 125I-polyubiquitin chain formation by E6APD543A. Format: biochemical. The settings on record: 20 nM E6 protein. How it is done:
(§1) E6AP-catalyzed ^125I-Ubiquitin Conjugation Assay: The E3 ligase activity of recombinant E6AP ligase was quantitated in kinetic assays under initial velocity conditions (Ronchi et al., (2013) J. Biol. Chem. 288, 10349-10360, Ronchi & Haas (2012) Methods Mol. Biol. 832: 197-218). Rates of E6AP-catalyzed ^125I-polyubiquitin chain formation were measured at 37° C. in incubations of 25-μl final volume containing 50 mM Tris-HCl (pH 7.5), 1 mM ATP, 10 mM MgCl2, 1 mM DTT, 10 mM creatine phosphate, 1 IU of creatine phosphokinase, 5 μM ^125I-ubiquitin (approximately 1.5×10^4 cpm/pmol), 50 nM human Uba1, and the indicated concentrations of UbcH7 and E6AP ligase (Siepmann et al., (2003) J. Biol. Chem. 278: 9448-9457; Baboshina et al., (2001) J. Biol. Chem. 276: 39428-39437). […]
(§2) Polyubiquitin chain formation was measured by excising lanes between the top of the resolving gel and the top of the stacker gel, representing anchored and free ^125I-polyubiquitin chains, respectively, and quantitating associated ^125I-ubiquitin by γ-counting. Absolute rates of ^125I-polyubiquitin chain formation were calculated from the associated radioactivity and the corrected specific radioactivity for ^125I-ubiquitin. Datum points represent single assay determinations, and complete data sets were evaluated by non-linear regression analysis using GraFit version 5.0 (Erithicus). […]

A further test deals with T2, E6APR626A (Homo sapiens, UniProt Q05086, R649A).
T2 construct: made in house; host or cells: E. coli
T2 sequence (Q05086 1-872 isoform Q05086-3 R646A): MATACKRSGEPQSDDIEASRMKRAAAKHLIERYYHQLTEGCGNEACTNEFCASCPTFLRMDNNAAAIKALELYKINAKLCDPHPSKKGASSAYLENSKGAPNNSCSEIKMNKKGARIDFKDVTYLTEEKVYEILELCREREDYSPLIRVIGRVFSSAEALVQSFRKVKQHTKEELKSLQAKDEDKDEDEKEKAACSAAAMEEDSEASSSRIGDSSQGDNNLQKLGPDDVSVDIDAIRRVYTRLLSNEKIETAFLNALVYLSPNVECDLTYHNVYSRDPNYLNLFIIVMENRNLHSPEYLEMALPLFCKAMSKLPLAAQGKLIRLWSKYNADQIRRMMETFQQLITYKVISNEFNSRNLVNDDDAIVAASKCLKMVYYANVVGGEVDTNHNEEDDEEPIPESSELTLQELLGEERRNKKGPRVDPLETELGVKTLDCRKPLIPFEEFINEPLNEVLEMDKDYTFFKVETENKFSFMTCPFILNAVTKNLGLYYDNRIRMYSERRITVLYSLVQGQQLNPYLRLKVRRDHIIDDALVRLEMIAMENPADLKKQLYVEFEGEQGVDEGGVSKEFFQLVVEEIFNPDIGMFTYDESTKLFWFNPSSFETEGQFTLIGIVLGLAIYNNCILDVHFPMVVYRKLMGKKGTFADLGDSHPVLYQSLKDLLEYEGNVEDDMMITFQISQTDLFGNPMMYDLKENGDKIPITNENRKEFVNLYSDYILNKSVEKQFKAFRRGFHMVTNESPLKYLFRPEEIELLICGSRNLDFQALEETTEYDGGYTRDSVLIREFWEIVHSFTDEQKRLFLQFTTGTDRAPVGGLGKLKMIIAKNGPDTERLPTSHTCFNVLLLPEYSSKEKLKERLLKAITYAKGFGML
The experiment in a line: E6 rescue of 125I-polyubiquitin chain formation by E6APR626A. It is filed as biochemical. The settings on record: 20 nM E6 protein. The method, then:
as §1, §2

B1: E6 protein: recombinant human papilloma virus 16 E6 protein, 158 amino acids (protein)
chain: MHQKRTAMFQDPQERPRKLPQLCTELQTTIHDIILECVYCKQQLLRREVYDFAFRDLCIVYRDGNPYAVCDKCLKFYSKISEYRHYCYSLYGTTLEQQYNKPLCDLLIRCINCQKPLCPEEKQRHLDKKQRFHNIRGRWTGRCMSCCRSSRTRRETQL
For the molecule B1, the effect on rate entry with E6APD543A is “no enhancement in rate”. The increase in rate with E6APR626A was 13 fold.
